In general, Kd refers to the constant that tells how readily two partners part at equilibrium.

Ten molecules from patent US20140363428A1 (Chugai, published 2014) can be followed below.

In experiment [1] the target is T1, soluble human FcRn (human, UniProt P55899 24-297; P61769 21-119).
T1 construct: Heterodimer of alpha chain and beta2-microglobulin; also called hFcRn
In words: SPR (Biacore), pH 7.0. In general terms: SPR reads the build-up and loss of mass on a sensor chip optically.

Experiment [2] has as its target T1, soluble human FcRn. In words: SPR (Biacore), pH 7.0, 25 C.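 Note: antibodies captured on a protein L-coated CM4 chip with human FcRn injected as analyte, KD obtained from ka and kd fitted to sensorgrams, in sodium phosphate buffer.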
Protocol: An appropriate amount of protein L (ACTIGEN) was immobilized onto Sensor chip CM4 (GE Healthcare) by the amino coupling method, and the chip was allowed to capture an antibody of interest. Then, diluted FcRn solutions and running buffer (as a reference solution) were injected to allow human FcRn to interact with the antibody captured on the sensor chip. The running buffer used comprised 50 mmol/l sodium phosphate, 150 mmol/l NaCl, and 0.05% (w/v) Tween20 (pH 7.0). FcRn was diluted using each buffer. The chip was regenerated using 10 mmol/l glycine-HCl (pH 1.5). Assays were carried out exclusively at 25 degrees C. The association rate constant ka (1/Ms) and dissociation rate constant kd (1/s), both of which are kinetic parameters, were calculated based on the sensorgrams obtained in the assays, and KD (M) of each antibody for human FcRn was determined from these values. Each parameter was calculated using Biacore T100 Evaluation Software (GE Healthcare).
Experiment [3] concerns the target T1, soluble human FcRn. As to the kind of experiment: SPR (Biacore), pH 7.0. The source holds these as a separate data set.

T1 sequence (P55899 24-297 limits assumed, chain 1 of 2): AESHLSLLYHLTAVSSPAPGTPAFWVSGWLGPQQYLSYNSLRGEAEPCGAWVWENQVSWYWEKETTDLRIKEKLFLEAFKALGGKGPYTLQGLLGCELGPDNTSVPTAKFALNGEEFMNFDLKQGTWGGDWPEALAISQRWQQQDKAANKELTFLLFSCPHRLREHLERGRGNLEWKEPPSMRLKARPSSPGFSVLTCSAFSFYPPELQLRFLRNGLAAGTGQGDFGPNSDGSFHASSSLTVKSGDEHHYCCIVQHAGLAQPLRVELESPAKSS
T1 sequence (P61769 21-119 limits assumed, chain 2 of 2): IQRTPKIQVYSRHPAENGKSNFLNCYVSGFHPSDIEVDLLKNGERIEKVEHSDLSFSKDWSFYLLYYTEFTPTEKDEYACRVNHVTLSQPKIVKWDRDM

B1: IgG1-F1371 (antibody)
heavy: QVQLQESGPGLVKPSETLSLTCAVSGHSISHDHAWSWVRQPPGEGLEWIGFISYSGITNYNPSLQGRVTISRDNSKNTLYLQMNSLRAEDTAVYYCARSLARTTAMDYWGEGTLVTVSSASTKGPSVFPLAPSSKSTSGGTAALGCLVKDYFPEPVTVSWNSGALTSGVHTFPAVLQSSGLYSLSSVVTVPSSSLGTQTYICNVNHKPSNTKVDKKVEPKSCDKTHTCPPCPAPELRGGPKVFLFPPKPKDTLYITREPEVTCVVVDVSHEDPEVKFNWYVDGVEVHNAKTKPREEQYNSTYRVVSVLTVLHQDWLNGKEYKCKVSNKALPAPIEKTISKAKGQPREPQVYTLPPSRDELTKNQVSLTCLVKGFYPSDIAVEWESNGQPENNYKTTPPVLDSDGSFFLYSKLTVDKSRWQQGNVFSCSVMHEALDYHVTRKELSLSP
light: not shown
For B1, the dissociation constant Kd with soluble human FcRn [1] and in the experiment with soluble human FcRn [2] was 110 nM each time.

B2: IgG1-F1420 (antibody)
heavy: QVQLQESGPGLVKPSETLSLTCAVSGHSISHDHAWSWVRQPPGEGLEWIGFISYSGITNYNPSLQGRVTISRDNSKNTLYLQMNSLRAEDTAVYYCARSLARTTAMDYWGEGTLVTVSSASTKGPSVFPLAPSSKSTSGGTAALGCLVKDYFPEPVTVSWNSGALTSGVHTFPAVLQSSGLYSLSSVVTVPSSSLGTQTYICNVNHKPSNTKVDKKVEPKSCDKTHTCPPCPAPELRGGPKVFLFPPKPKDTLYISRTPEVTCVVVDVSHEDPEVKFNWYVDGVEVHNAKTKPREEQYNSTYRVVSVLTVLHQDWLNGKEYKCKVSNKALPAPIEKTISKAKGQPREPQVYTLPPSRDELTKNQVSLTCLVKGFYPSDIAVEWESNGQPENNYKTTPPVLDSDGSFFLYSKLTVDKSRWQQGNVFSCSVMHEALDWHVTKKELSLSP
light: not shown
As to B2, the dissociation constant (Kd) with soluble human FcRn [1] and with soluble human FcRn [2] was 130 nM throughout.

B3: IgG1-F1379 (antibody)
heavy: QVQLQESGPGLVKPSETLSLTCAVSGHSISHDHAWSWVRQPPGEGLEWIGFISYSGITNYNPSLQGRVTISRDNSKNTLYLQMNSLRAEDTAVYYCARSLARTTAMDYWGEGTLVTVSSASTKGPSVFPLAPSSKSTSGGTAALGCLVKDYFPEPVTVSWNSGALTSGVHTFPAVLQSSGLYSLSSVVTVPSSSLGTQTYICNVNHKPSNTKVDKKVEPKSCDKTHTCPPCPAPELRGGPKVFLFPPKPKDTLYISRTPEVTCVVVDVSHEDPEVKFNWYVDGVEVHNAKTKPREEQYNSTYRVVSVLTVLHQDWLNGKEYKCKVSNKALPAPIEKTISKAKGQPREPQVYTLPPSRDELTKNQVSLTCLVKGFYPSDIAVEWESNGQPENNYKTTPPVLDSDGSFFLYSKLTVDKSRWQQGNVFSCSVMHEALHYHFTQKSLSLSP
light: not shown
As for B3, the Kd with soluble human FcRn [1] and with soluble human FcRn [2] was 280 nM each time.

B4: IgG1-F1378 (antibody)
heavy: QVQLQESGPGLVKPSETLSLTCAVSGHSISHDHAWSWVRQPPGEGLEWIGFISYSGITNYNPSLQGRVTISRDNSKNTLYLQMNSLRAEDTAVYYCARSLARTTAMDYWGEGTLVTVSSASTKGPSVFPLAPSSKSTSGGTAALGCLVKDYFPEPVTVSWNSGALTSGVHTFPAVLQSSGLYSLSSVVTVPSSSLGTQTYICNVNHKPSNTKVDKKVEPKSCDKTHTCPPCPAPELRGGPKVFLFPPKPKDTLYISRTPEVTCVVVDVSHEDPEVKFNWYVDGVEVHNAKTKPREEQYNSTYRVVSVLTVLHQDWLNGKEYKCKVSNKALPAPIEKTISKAKGQPREPQVYTLPPSRDELTKNQVSLTCLVKGFYPSDIAVEWESNGQPENNYKTTPPVLDSDGSFFLYSKLTVDKSRWQQGNVFSCSVMHEALHYHTTQKSLSLSP
light: not shown
B4: the dissociation constant Kd with soluble human FcRn [1] and with soluble human FcRn [2] was 360 nM in each case.

B5: IgG1-F1413 (antibody)
heavy: QVQLQESGPGLVKPSETLSLTCAVSGHSISHDHAWSWVRQPPGEGLEWIGFISYSGITNYNPSLQGRVTISRDNSKNTLYLQMNSLRAEDTAVYYCARSLARTTAMDYWGEGTLVTVSSASTKGPSVFPLAPSSKSTSGGTAALGCLVKDYFPEPVTVSWNSGALTSGVHTFPAVLQSSGLYSLSSVVTVPSSSLGTQTYICNVNHKPSNTKVDKKVEPKSCDKTHTCPPCPAPELRGGPKVFLFPPKPKDTLYITREPEVTCVVVDVSHEDPEVKFNWYVDGVEVHNAKTKPREEQYNSTYRVVSVLQVLHADWLNGKEYKCKVSNKALPAPIEKTISKAKGQPREPQVYTLPPSRDELTKNQVSLTCLVKGFYPSDIAVEWESNGQPENNYKTTPPVLDSDGSFFLYSKLTVDKSRWQQGNVFSCSVMHEALDYHVTKKELSLSP
light: not shown
For the molecule B5, the Kd in the experiment with soluble human FcRn [1] and with soluble human FcRn [2] was 37 nM each time.

B6: IgG1-F1416 (antibody)
heavy: QVQLQESGPGLVKPSETLSLTCAVSGHSISHDHAWSWVRQPPGEGLEWIGFISYSGITNYNPSLQGRVTISRDNSKNTLYLQMNSLRAEDTAVYYCARSLARTTAMDYWGEGTLVTVSSASTKGPSVFPLAPSSKSTSGGTAALGCLVKDYFPEPVTVSWNSGALTSGVHTFPAVLQSSGLYSLSSVVTVPSSSLGTQTYICNVNHKPSNTKVDKKVEPKSCDKTHTCPPCPAPELRGGPKVFLFPPKPKDTLYITREPEVTCVVVDVSHEDPEVKFNWYVDGVEVHNAKTKPREEQYNSTYRVVSVLTPLHQDWLNGKEYKCKVSNKALPAPIEKTISKAKGQPREPQVYTLPPSRDELTKNQVSLTCLVKGFYPSDIAVEWESNGQPENNYKTTPPVLDSDGSFFLYSKLTVDKSRWQQGNVFSCSVMHEALDYHVTKKELSLSP
light: not shown
In the case of B6, the Kd with soluble human FcRn [1] and with soluble human FcRn [2] was 13 nM throughout.

B7: IgG1-F1419 (antibody)
heavy: QVQLQESGPGLVKPSETLSLTCAVSGHSISHDHAWSWVRQPPGEGLEWIGFISYSGITNYNPSLQGRVTISRDNSKNTLYLQMNSLRAEDTAVYYCARSLARTTAMDYWGEGTLVTVSSASTKGPSVFPLAPSSKSTSGGTAALGCLVKDYFPEPVTVSWNSGALTSGVHTFPAVLQSSGLYSLSSVVTVPSSSLGTQTYICNVNHKPSNTKVDKKVEPKSCDKTHTCPPCPAPELRGGPKVFLFPPKPKDTLYISRTPEVTCVVVDVSHEDPEVKFNWYVDGVEVHNAKTKPREEQYNSTYRVVSVLTVLHQDWLNGKEYKCKVSNKALPAPIEKTISKAKGQPREPQVYTLPPSRDELTKNQVSLTCLVKGFYPSDIAVEWESNGQPENNYKTTPPVLDSDGSFFLYSKLTVDKSRWQQGNVFSCSVMHEALDWHVTRKELSLSP
light: not shown
On to B7, for which the dissociation constant Kd with soluble human FcRn [1] and with soluble human FcRn [2] was 150 nM in each case.

B8: Fv-4-F947 (antibody, human IgG1, kappa)
heavy: QVQLQESGPGLVKPSETLSLTCAVSGHSISHDHAWSWVRQPPGEGLEWIGFISYSGITNYNPSLQGRVTISRDNSKNTLYLQMNSLRAEDTAVYYCARSLARTTAMDYWGEGTLVTVSSASTKGPSVFPLAPSSKSTSGGTAALGCLVKDYFPEPVTVSWNSGALTSGVHTFPAVLQSSGLYSLSSVVTVPSSSLGTQTYICNVNHKPSNTKVDKKVEPKSCDKTHTCPPCPAPELLGGPSVFLFPPKPKDVLYISRTPEVTCVVVDVSHEDPEVKFNWYVDGVEVHNAKTKPREEQYNSTYRVVSVLQPLHADWLNGKEYKCKVSNKALPAPIEKTISKAKGQPREPQVYTLPPSRDELTKNQVSLTCLVKGFYPSDIAVEWESNGQPENNYKTTPPVLDSDGSFFLYSKLTVDKSRWQQGNVFSCSVMHEALHYHVTQKSLSLSP
light: DIQMTQSPSSLSASVGDSVTITCQASTDISSHLNWYQQKPGKAPELLIYYGSHLLSGVPSRFSGSGSGTDFTFTISSLEAEDAATYYCGQGNRLPYTFGQGTKVEIERTVAAPSVFIFPPSDEQLKSGTASVVCLLNNFYPREAKVQWKVDNALQSGNSQESVTEQDSKDSTYSLSSTLTLSKADYEKHKVYACEVTHQGLSSPVTKSFNRGEC
As to B8, the affinity with soluble human FcRn [3], expressed as Kd, was 11.1 nM.

B9: Fv-4-F1059 (antibody, human IgG1, kappa)
heavy: QVQLQESGPGLVKPSETLSLTCAVSGHSISHDHAWSWVRQPPGEGLEWIGFISYSGITNYNPSLQGRVTISRDNSKNTLYLQMNSLRAEDTAVYYCARSLARTTAMDYWGEGTLVTVSSASTKGPSVFPLAPSSKSTSGGTAALGCLVKDYFPEPVTVSWNSGALTSGVHTFPAVLQSSGLYSLSSVVTVPSSSLGTQTYICNVNHKPSNTKVDKKVEPKSCDKTHTCPPCPAPELLGGPSVFLFPPKPKDTLYISRTPEVTCVVVDVSHEDPEVKFNWYVDGVEVHNAKTKPREEQYNSTYRVVSVLTVLHQDWLNGKEYKCKVSNKALPAPIEKTISKAKGQPREPQVYTLPPSRDELTKNQVSLTCLVKGFYPSDIAVEWESNGRPENNYKTTPPVLDSDGSFFLYSKLTVDKSRWQQGNVFSCSVMHEALHYHVTQKSLSLSP
light: DIQMTQSPSSLSASVGDSVTITCQASTDISSHLNWYQQKPGKAPELLIYYGSHLLSGVPSRFSGSGSGTDFTFTISSLEAEDAATYYCGQGNRLPYTFGQGTKVEIERTVAAPSVFIFPPSDEQLKSGTASVVCLLNNFYPREAKVQWKVDNALQSGNSQESVTEQDSKDSTYSLSSTLTLSKADYEKHKVYACEVTHQGLSSPVTKSFNRGEC
Consider B9, for which binding with soluble human FcRn [3] was put at a Kd of 140 nM.

B10: Fv-4-F1058 (antibody, human IgG1, kappa)
heavy: QVQLQESGPGLVKPSETLSLTCAVSGHSISHDHAWSWVRQPPGEGLEWIGFISYSGITNYNPSLQGRVTISRDNSKNTLYLQMNSLRAEDTAVYYCARSLARTTAMDYWGEGTLVTVSSASTKGPSVFPLAPSSKSTSGGTAALGCLVKDYFPEPVTVSWNSGALTSGVHTFPAVLQSSGLYSLSSVVTVPSSSLGTQTYICNVNHKPSNTKVDKKVEPKSCDKTHTCPPCPAPELLGGPSVFLFPPKPKDTLYISRTPEVTCVVVDVSHEDPEVKFNWYVDGVEVHNAKTKPREEQYNSTYRVVSVLTVLHQDWLNGKEYKCKVSNKALPAPIEKTISKAKGQPREPQVYTLPPSRDELTKNQVSLTCLVKGFYPSDIAVEWESNGEPENNYKTTPPVLDSDGSFFLYSKLTVDKSRWQQGNVFSCSVMHEALHYHVTQKSLSLSP
light: DIQMTQSPSSLSASVGDSVTITCQASTDISSHLNWYQQKPGKAPELLIYYGSHLLSGVPSRFSGSGSGTDFTFTISSLEAEDAATYYCGQGNRLPYTFGQGTKVEIERTVAAPSVFIFPPSDEQLKSGTASVVCLLNNFYPREAKVQWKVDNALQSGNSQESVTEQDSKDSTYSLSSTLTLSKADYEKHKVYACEVTHQGLSSPVTKSFNRGEC
Regarding B10, in the experiment with soluble human FcRn [3], the Kd stood at 130 nM.
